Data taken from PMC5832301.

Molecular target: UDP-glucose pyrophosphorylase from sugarcane (ScUGPase-1) (sugarcane (Saccharum spp. hybrids))
Assay: SEC-MALS; sample of the larger oligomeric form peak; Superdex 200 increase 5/150, room temperature, 2.0 mg/mL, 20 mM Tris/HCl pH 8.0, 20 mM NaCl

With “UDP-glucose pyrophosphorylase from sugarcane (ScUGPase-1) (from UniProt A0A075E2Q1 1-476) (enzyme)” the stoichiometry N was 8.
